Legend:
[1] = molecular target: PRC2 5-mer WT (EZH2-SUZ12-EED-RBBP4-AEBP2) (UniProt Q15910;Q15022;O75530;Q09028;Q6ZN18 1-746;1-739;1-441;1-425;1-517); experiment: EMSA
[2] = molecular target: T1, PRC2 5-mer MT (RNA-binding mutant EZH2) (UniProt Q15910;Q15022;O75530;Q09028;Q6ZN18 1-746;1-739;1-441;1-425;1-517, F32A;R34A;D36A;K39A;P489N;R490A;K491A;K492I;K493R;R494S); experiment: EMSA
[3] = molecular target: T1, PRC2 5-mer MT (RNA-binding mutant EZH2); experiment: fluorescence anisotropy
[4] = molecular target: PRC2 4-mer MT (RNA-binding mutant EZH2) (UniProt Q15910;Q15022;O75530;Q09028 1-746;1-739;1-441;1-425, F32A;R34A;D36A;K39A;P489N;R490A;K491A;K492I;K493R;R494S); experiment: fluorescence anisotropy
Chain of PRC2 4-mer MT (RNA-binding mutant EZH2) (Q15910 whole entry F32A/R34A/D36A/K39A/P489N/R490A/K491A/K492I/K493R/R494S, chain 1 of 4): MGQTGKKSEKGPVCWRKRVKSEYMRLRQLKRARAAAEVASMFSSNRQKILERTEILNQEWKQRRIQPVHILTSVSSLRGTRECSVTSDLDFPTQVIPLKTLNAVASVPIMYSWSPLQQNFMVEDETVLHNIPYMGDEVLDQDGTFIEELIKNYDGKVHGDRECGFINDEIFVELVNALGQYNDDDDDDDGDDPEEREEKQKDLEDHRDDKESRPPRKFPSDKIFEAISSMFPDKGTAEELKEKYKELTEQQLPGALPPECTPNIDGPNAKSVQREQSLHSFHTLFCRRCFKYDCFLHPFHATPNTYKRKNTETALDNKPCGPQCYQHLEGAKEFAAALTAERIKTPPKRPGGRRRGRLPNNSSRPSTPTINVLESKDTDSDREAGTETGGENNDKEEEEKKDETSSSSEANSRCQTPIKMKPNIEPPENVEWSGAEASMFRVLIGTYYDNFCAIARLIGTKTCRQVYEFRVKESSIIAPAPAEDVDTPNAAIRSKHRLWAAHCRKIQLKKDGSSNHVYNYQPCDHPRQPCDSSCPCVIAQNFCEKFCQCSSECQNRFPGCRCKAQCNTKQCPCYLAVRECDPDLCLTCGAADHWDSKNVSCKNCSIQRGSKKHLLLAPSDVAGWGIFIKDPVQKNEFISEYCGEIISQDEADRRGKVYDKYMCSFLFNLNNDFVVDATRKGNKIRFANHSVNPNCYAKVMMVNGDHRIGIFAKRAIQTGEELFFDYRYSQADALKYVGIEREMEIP
Chain of PRC2 4-mer MT (RNA-binding mutant EZH2) (Q15022 whole entry, stated change not applied, chain 2 of 4): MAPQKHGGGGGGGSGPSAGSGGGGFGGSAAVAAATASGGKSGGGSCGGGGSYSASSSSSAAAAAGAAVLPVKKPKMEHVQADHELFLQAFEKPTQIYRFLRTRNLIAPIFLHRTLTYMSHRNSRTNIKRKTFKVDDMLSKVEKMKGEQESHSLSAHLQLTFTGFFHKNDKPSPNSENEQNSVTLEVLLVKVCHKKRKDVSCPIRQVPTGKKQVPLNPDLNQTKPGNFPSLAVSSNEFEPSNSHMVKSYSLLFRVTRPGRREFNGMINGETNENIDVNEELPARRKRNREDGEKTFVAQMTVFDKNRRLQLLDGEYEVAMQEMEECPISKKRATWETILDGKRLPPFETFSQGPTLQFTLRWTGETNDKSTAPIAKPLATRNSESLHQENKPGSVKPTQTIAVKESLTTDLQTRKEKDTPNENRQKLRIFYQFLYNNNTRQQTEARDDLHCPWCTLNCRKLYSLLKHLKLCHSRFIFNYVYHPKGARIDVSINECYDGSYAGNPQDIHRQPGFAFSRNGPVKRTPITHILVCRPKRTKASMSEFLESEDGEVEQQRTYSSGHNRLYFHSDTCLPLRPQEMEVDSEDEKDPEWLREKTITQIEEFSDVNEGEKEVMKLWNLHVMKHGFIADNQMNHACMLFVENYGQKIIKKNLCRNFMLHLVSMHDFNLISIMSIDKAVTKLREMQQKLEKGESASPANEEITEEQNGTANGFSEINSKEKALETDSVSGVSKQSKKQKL
Chain of PRC2 4-mer MT (RNA-binding mutant EZH2) (O75530 whole entry, stated change not applied, chain 3 of 4): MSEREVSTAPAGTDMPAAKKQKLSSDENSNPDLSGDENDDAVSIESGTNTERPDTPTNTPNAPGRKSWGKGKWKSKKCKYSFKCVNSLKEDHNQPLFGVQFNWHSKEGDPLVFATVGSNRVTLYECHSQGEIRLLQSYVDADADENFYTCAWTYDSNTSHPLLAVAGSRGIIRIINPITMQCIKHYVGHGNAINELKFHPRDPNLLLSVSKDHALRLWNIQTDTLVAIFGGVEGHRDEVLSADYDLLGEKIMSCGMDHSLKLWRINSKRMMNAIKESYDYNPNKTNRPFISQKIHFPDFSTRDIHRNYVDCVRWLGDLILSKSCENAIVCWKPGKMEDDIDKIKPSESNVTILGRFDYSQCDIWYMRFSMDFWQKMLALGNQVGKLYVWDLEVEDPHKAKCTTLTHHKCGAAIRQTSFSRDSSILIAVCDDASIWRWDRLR
Chain of PRC2 4-mer MT (RNA-binding mutant EZH2) (Q09028 whole entry, stated change not applied, chain 4 of 4): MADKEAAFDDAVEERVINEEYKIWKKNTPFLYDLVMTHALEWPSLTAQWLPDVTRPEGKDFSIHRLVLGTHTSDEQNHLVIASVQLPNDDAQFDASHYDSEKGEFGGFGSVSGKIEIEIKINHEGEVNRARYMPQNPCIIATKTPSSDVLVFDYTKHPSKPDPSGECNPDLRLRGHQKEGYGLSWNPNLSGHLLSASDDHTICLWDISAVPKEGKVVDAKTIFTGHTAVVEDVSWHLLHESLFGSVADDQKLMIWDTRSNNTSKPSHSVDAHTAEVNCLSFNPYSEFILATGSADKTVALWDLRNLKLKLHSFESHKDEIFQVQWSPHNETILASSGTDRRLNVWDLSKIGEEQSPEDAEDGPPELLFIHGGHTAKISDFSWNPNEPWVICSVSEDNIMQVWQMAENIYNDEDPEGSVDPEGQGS

With GGAAGGAAGGAAGGAAGGAAGGAAGGAAGGAAGGAAGGAA (structured_RNA) [(GGAA)10 G4 RNA 40-mer] the Kd [1] was 2 nM and the Kd [2] was 12 nM.

GGAAGGAAGGAAGGAAGGAAGGAAGGAAGGAAGGAAGGAA (structured_RNA) [Alexa 488-(GGAA)10 RNA] showed a binding signal [3] of 30 fold koff increase vs WT and a binding signal [4] of 8 fold koff increase vs WT.

From PMC10353856
